For data set [1], the system named is human NK cells. In words: NK cell RNA-sequencing after co-culture with antibody-pretreated A375 cells. The data set is classed as cell-based. The conditions noted are these: 6 hours co-culture; A375 pretreated 48 hours. The procedure: Human NK cells were isolated from a healthy volunteer to ˜99% purity. These cells were pre-activated with 1,000 U/ml IL-2 overnight. A375 tumor cells were pre-treated with 10 μg/ml of 7C6-hIgG1 or isotype control (BioXcell BE0096) antibodies for 48 hours. Cells were then washed and NK cells were co-cultured with tumor cells for 6 hours in a 5:1 ratio. Subsequently, human NK cells were re-sorted and total RNA isolated with genomic DNA digestion with QIAGEN RNeasy RNA isolation kit (74134). RNA sequencing libraries were generated using the Kapa mRNAseq kit (KapaBiosystems). The libraries were analyzed by Next-Generation Sequencing and pooled barcoded samples were subjected to VIPER analysis. RNA levels were compared for NK cells from co-cultures treated with 7C6-hIgG1 versus isotype control antibodies. A cut-off of at least 1 Log2 fold change was applied to select genes that were differentially expressed. Gene set enrichment analysis (GSEA) was also performed in order to identify relevant molecular pathways for differentially expressed mRNAs.

For data set [2], the system named is human NK cells. Nature of the data set: Intracellular interferon-γ production by NK cells co-cultured with tumor cells. The class given is cell-based. Particulars: co-culture with tumor cells, antibody 10 μg/ml. As for the experimental part: NK cells were co-cultured for 6 hours at a ratio of 5:1 with tumor cells in the presence of Brefeldin-A (Biolegend). After the incubation time, Fc receptors were blocked, cells stained with NK cell markers, stained further with a dead cell marker (Zombie Yellow, Biolegend), and subsequently processed for intracellular interferon-γ labeling. Briefly, cells were fixed with BD Cytofix/Cytoperm™ Fixation and Permeabilization Solution (BD Pharmingen), permeabilized with Permeabilization Wash Buffer (Biolegend), and stained with APC-conjugated anti-human interferon-γ (4S.B3, Biolegend) or appropriate isotype control. Fluorescence spectra were acquired using a LSR Fortessa flow cytometer and analyzed by FlowJo.

A further data set concerns Kupffer cells. Nature of the data set: Analysis of liver macrophages in humanized metastasis model. The data set is classed as in vivo, NSG mice. The conditions noted are these: three weeks after tumor cell inoculation. As for the experimental part:
NSG mice were injected i.v with A2058 cells and treated with 7C6-hgG1 or isotype control antibodies as described above. Three weeks following tumor cell inoculation, mice were euthanized and livers were perfused with PBS through the portal vein. Livers were mechanically dissociated and cell suspensions passed through a 70 □ filter. […] Antibodies used for subsequent labeling were APC-CD45.2, APC-CD45.1, BV785-CD11b, BV421-F4/80, BV650-CD80, PE-CD86, FITC-Ly6C, PE-Cy7-Ly6G, PERCP-Cy5.5-CD16/CD32 and Zombie NIR. Cells were acquired in a Sony Spectral Analyzer and data were analyzed by FlowJo.

The subject of a further data set is human macrophages. In words: Inhibition of MICA shedding by macrophages. The class given is cell-based. The conditions noted are these: acetylated-LDL, 24 hours, antibody 10 μg/ml. As for the experimental part: PBMC were isolated from a leukapheresis collar obtained from a healthy donor, and monocytes were isolated by adherence to tissue culture plates (2 hour incubation). Non-adherent cells were then washed away and M-CSF was added at 100 ng/ml in RPMI-1640 media supplemented with 10% FBS, Glutamax and Penicillin/Streptomycin. Visual inspection of cell morphology on day 5 confirmed that monocytes had differentiated into macrophages. Macrophages were treated for 24 hours in 96-well plates with different concentrations of acetylated LDL as well as MICA antibodies (10 μg/ml). Shed MICA in supernatants was examined by ELISA (Abcam) and cell surface density of MICA/B was quantified by flow cytometry.

The subject of the next data set is A375 cells. In words: NK cell cytotoxicity assay (51Cr release), human NK cells against human tumor cells. The class given is cell-based. The procedure: Human NK cells were isolated from fresh leukapheresis blood collars that had been generated by Brigham & Women's Hospital, Boston, from healthy donors. Samples were diluted with an equal volume of PBS and blood mononuclear cells were isolated by Ficoll density gradient centrifugation. Cells were washed with PBS, and NK cells were isolated by negative selection using the Human NK Cell Isolation Kit (130-092-657, Miltenyi Biotech) using an autoMACS system (Miltenyi Biotech). Enriched NK cells (purity of 50-90%) were then incubated with anti-CD56 (PE or APC conjugated) and anti-CD3 (FITC or Pacific Blue conjugated) (Biolegend) and sorted using a BD FACS Aria. Following sorting, NK cell purity was ˜99%. These cells were cultured for twelve hours in complete RPMI media supplemented with 300-1000 U/ml of recombinant human IL-2 (BD Pharmingen).
Target cells were labeled for 1 hour with 100 μCi of ^51[Cr] per 2×10^6 cells in 0.2 ml of media. Subsequently, cells were washed and plated in V-bottom 96-wells plates (5,000 target cells per well). To determine the experimental release, NK cells were added in an equal volume, but at different ratios. To determine maximum and spontaneous release, target cells were mixed with an equal volume of 2% Triton-X100 in PBS or an equal volume of media, respectively. Antibodies were added at a final concentration of 10 μg/ml.
For experiments shown in FIGS. 1E, 10, and 13E antibodies were added at the time of the killing assay. For FIGS. 3A-B, antibodies were added to tumor cells 48 hours prior to labelling with ^51[Cr] to inhibit MICAS shedding. The isotype control antibody for assays with human NK cells was recombinant human IgG1 Fc (BE0096, BioXcell). […] At the end of the incubation period, plates were centrifuged (2000 rpm, 5 minutes), part of the supernatant was collected, mixed with scintillation fluid, and radioactivity was quantified using a MicroBeta2 reader (Perkin Elmer). Specific killing was calculated using the following formula: 100×(Experimental release−Spontaneous release)/(Maximum release−Spontaneous release).

For the next data set, the system named is A2058 melanoma cells. Nature of the data set: A2058 metastasis model (NSG mice, human NK cells). The data set is classed as in vivo. The procedure:
Human NK cell reconstitution of NSG mice was done similar to a previous report (26). Briefly, human NK cells were obtained from fresh blood collars, as described above. Cells were treated overnight with 300 U/ml of recombinant human IL-2 (BD Pharmingen), and 1.5×10^6NK cells were injected intravenously into NSG mice. NK cell survival was supported by intraperitoneal injection of 75,000 U of IL-2 (Peprotech) every other day. Human NK cells survived in NSG mice for approximately one week under these conditions (data not shown) and therefore the last IL-2 injection was given 7 days following NK cell transfer. Furthermore, one day after NK cell inoculation and the first injection of IL-2, NSG mice were also injected intravenously with 1×10^6 A2058 melanoma cells. Two days later, mice were treated with 200 μg 7C6-hIgG1 or isotype control (BioXcell) and again once per week. Mice were bled at multiple time points to measure shed MICA and other serum markers. Euthanasia was performed on day 30 following tumor cell inoculation, lungs were perfused with Indian ink (as described above), fixed in Fekete's solution, and the number of lung metastases was counted. Lungs processed for histology were not perfused but fixed in formalin. Livers were also collected, fixed in formalin solution and the number of metastases was counted, or processed for histology. Following removal of these tissues, mice were fixed in Bouin fixative and processed for necropsy by the Rodent Histopathology Core (Dana-Farber/Harvard Cancer Center). The analysis was performed by a pathologist unaware of the different experimental groups.
Macrophages were depleted by intravenous injection of 0.2 ml clodronate liposomes (Encapsula NanoSciences LLC). In the humanized and B16F10-MICA metastasis models, 0.2 ml of clodronate liposomes or control liposomes were injected i.v. (on the same day of tumor cell inoculation and then once weekly).

Data on one molecule can be found in US12662540B2, “Compositions and methods for inhibition of MICA/B shedding” (DANA-FARBER CANCER INSTITUTE, INC., priority 2017, dated 2026).

“Also recorded” adds a separate entry of the source.

B1: 7C6-hIgG1: recombinant 7C6 with Fc segment replaced by human IgG1 (antibody, V domains shown)
VH: QIQLVQSGPELKKPGETVKVSCKASGYMFTNYAMNWVKQAPEKGLKWMGWINTHTGDPTYADDFKGRIAFSLETSASTAYLQINNLKNEDTATYFCVRTYGNYAMDYWGQGTSVTVSS
VL: DIQMTQTTSSLSASLGDRVTISCSASQDISNYLNWYQQKPDGTVKLLIYDTSILHLGVPSRFSGSGSGTDYSLTISNLEPEDIATYYCQQYSKFPRTFGGGTTLEIK
For the molecule B1, the “gene expression by human NK cells” value with human NK cells [1] was “upregulated genes associated with NK cell activation and effector functions”. The “IFNγ (cytokine) production by human NK cells” value in the data set with human NK cells [2] was “produced higher levels of IFNγ”. In the data set on Kupffer cells, the “CD80 expression by Kupffer cells” value was “higher surface levels of the CD80 activation marker; also recorded: increased expression of CD80 by Kupffer cells”. In addition, in the data set with human macrophages, the “MICA and MICB surface levels on macrophages” value was “increased MICA and MICB surface levels on macrophages”; the “MICA shedding by macrophages” value is listed as “inhibited MICA shedding”. For the same molecule, the “NK cell-mediated cytotoxicity against antibody-pretreated A375 cells” value in the data set on A375 cells (A375 treated 48 hours, 4 hour co-culture with human NK cells) is recorded as “triggered stronger NK cell-mediated cytotoxicity than the 7C6-hIgG1-DANA mutant”. The “NK cell mediated cytotoxicity against human tumor cells” value with A375 cells (human NK cells, antibody added at time of killing assay (10 μg/ml, 66.7 nM)) is recorded as “enabled strong NK cell mediated killing of human tumor cells; also recorded: exhibit cytotoxicity against A375 cells”. Moreover, in the data set on A2058 melanoma cells (NSG mice reconstituted with human NK cells, day 30), the “number of lung metastases” value was “had fewer lung metastases; also recorded: reduces number of lung metastases in the presence of human NK cells”. Also, in the data set with A2058 melanoma cells (clodronate liposomes, no NK cell reconstitution, 3 weeks), the “activity against liver metastases after macrophage depletion” value is “abrogated the therapeutic activity”. Moreover, the “number of organs with metastases (metastatic load)” value in the data set with A2058 melanoma cells (day 30) is on record as “reduced the number of organs with metastases; also recorded: significantly reduced metastatic load in the absence of transferred NK cells”. In the data set with A2058 melanoma cells (mice reconstituted with human NK cells), the survival result was “significant survival benefit; also recorded: increases the survival of mice”. Besides, the “number of liver metastases” value in the data set on A2058 melanoma cells (with or without NK cell transfer, day 30) was “substantially reduced the number of liver metastases even without NK cell transfer; also recorded: shows significant therapeutic activity against liver metastases even in the absence of NK cells”.
